Like-named read-outs stand apart in the source and are kept apart here.
Legend:
Assay in all cases: EMSA
[1] = molecular target: E. coli RNAP core enzyme;sigmaA (Escherichia coli;Mycobacterium …, UniProt P0A7Z4;P0A8V2;P0A8T7;P0A800;P9WGI1 1-329;1-1342;1-1407;1-91;1-528, |)
[2] = molecular target: RNAP core enzyme (alpha2 beta beta' omega);sigmaA (Mycobacterium tuberculosis (H37Rv for …, UniProt P9WGZ1;P9WGY9;P9WGY7;P9WGY5;P9WGI1 1-347;1-1178;1-1316;1-110;1-528, |))
[3] = molecular target: T1, RNAP core enzyme (alpha2 beta beta' omega);sigmaA;RbpA (Mycobacterium tuberculosis (H37Rv for …, UniProt P9WGZ1;P9WGY9;P9WGY7;P9WGY5;P9WGI1;P9WHJ5 1-347;1-1178;1-1316;1-110;1-528;1-111, ||))
[4] = molecular target: T1, RNAP core enzyme (alpha2 beta beta' …); remark: listed apart in the source

B1: rrnAP3 promoter fragment (150 bp) (dsDNA)
DNA 1: ATCGAACGGGTATGCTGTTAGGCGACGGTCACCTATGGATATCTATGGATGACCGAACCTGGTCTTGACTCCATTGCCGGATTTGTATTAGACTGGCAGGGTTGCCCCGAAGCGGGCGGAAACAAGCAAGCGTGTTGTTTGAGAACTCAA
DNA 2: TTGAGTTCTCAAACAACACGCTTGCTTGTTTCCGCCCGCTTCGGGGCAACCCTGCCAGTCTAATACAAATCCGGCAATGGAGTCAAGACCAGGTTCGGTCATCCATAGATATCCATAGGTGACCGTCGCCTAACAGCATACCCGTTCGAT
B1: binds [1]; binds [2]; binds [3].

B2: sinP3 promoter fragment (127 bp) (dsDNA)
DNA 1: TTTAAACAAAAAGTCTGCTCATCCTGGTCCGGCAGCCAGAAGTCATACCGTAAATCCTTTCTGAATGTGCTATAATATCACAAGGAAGGTGATGACATTGATTGGCCAGCGTATTAAACAATACCGT
DNA 2: ACGGTATTGTTTAATACGCTGGCCAATCAATGTCATCACCTTCCTTGTGATATTATAGCACATTCAGAAAGGATTTACGGTATGACTTCTGGCTGCCGGACCAGGATGAGCAGACTTTTTGTTTAAA
B2: binds [4].
